# According to patent publication US20110135634A1, “METHODS OF INHIBITING INFECTION BY DIVERSE SUBTYPES OF DRUG-RESISTANT HIV-1” (priority 2007, published 2011):
# Where two headings read alike, the source gives them in different places.
# What was measured:
# CCR5 lymphocytes = format: in vivo, human
# Description: Whole blood specimens were combined separately with the indicated phycoerythrin-labeled anti-CCR5 antibodies or with appropriate isotype-control antibodies. Erythocytes were lysed and leukocytes were stabilized using the ImmunoPrep Reagent System (Beckman Coulter), and the cells were analyzed on a TQ Prep™ flow cytometry workstation (Beckman Coulter). Data were expressed as the percent of CCR5 cells relative to all cells gated in the analysis.
# For up to 60 days post-treatment, at the times indicated in FIG. 6, blood was collected and analyzed for CCR5 lymphocyte levels.
# Background binding of isotype control antibodies was unchanged.
# HIV-1JR-CSF = test: hu-PBL-SCID mouse model of HIV-1 infection (FIG. 5); format: in vivo, SCID mice; settings: multiple doses after steady state viral levels
# Description: SCID mice were reconstituted with normal human peripheral blood mononuclear cells and infected 2 weeks later with HIV-1JR-CSF. Multiple doses of PRO 140 were administered following attainment of steady state viral levels. Plasma viral loads pre- and post-injection are indicated.
# [1] = system: reporter viruses pseudotyped with HIV-1JR-FL envelope (U87-CD4-CCR5 cells); test: microbe, parasite or virus in culture; format: cell-based
# [2] = system: CCR5-tropic envelope-complemented luciferase-expressing HIV-1 reporter viruses; test: PhenoSense HIV Entry Assay on U87-CD4/CCR5 cells; format: cell-based; parameters: key to Mean FC / FC: fold change in drug susceptibility vs DUAL (92HT594) reference envelope
# From the text: Of these, 10 isolates were derived from viruses with high-level resistance to protease (PR) and/or reverse transcriptase (RT) inhibitors. Four additional isolates incorporated the major enfuvirtide-conferring mutations in an HIV-1JR-CSF envelope background. […] EC50 values for test isolates were divided by the EC50 for a well-characterized reference virus (HIV-192HT594) to yield fold-change (FC) values.
# A PhenoSense™ HIV Entry assay (Whitcomb et al, Antimicrobial Agents and Chemotherapy, 51:566, 2007) has been developed by modifying the PhenoSense HIV assay and is illustrated schematically in FIGS. 21 and 22. The assay uses nucleic acid amplification (RT-PCR) to derive HIV envelope sequences (gp160) from HIV(+) patient plasma samples or other sources. Amplified envelope sequences were incorporated into a proprietary expression vector (pCXAS) using conventional cloning methods. Envelope expression vectors were prepared as large pools of sequences (>200) in order to assure that the diversity of sequences accurately represents the diversity of viral quasispecies in the specimen at the time of sample collection. Recombinant HIV-1 stocks expressing virus envelope proteins were prepared by co-transfecting HEK293 cells with a HIV-1 genomic viral vector and an appropriate envelope expression vector. The HIV-1 genomic vector is replication defective and contains a luciferase expression cassette within a deleted region of the HIV envelope gene. Following transfection, recombinant virus particles were harvested and used to inoculate two U87 cell lines expressing CD4 and the CCR5 or CXCR4 co-receptor (U87-CD4/CCR5 and U87-CD4/CXCR4 cells, respectively). […] Drug susceptibility was measured by comparing the amount of luciferase activity produced in the presence of entry inhibitors to the amount of luciferase activity produced in absence of entry inhibitors. Entry inhibitor activity was evaluated at ten serial drug concentrations. Data were analyzed by plotting percent inhibition of luciferase activity vs. log10 drug concentration.
# The 31 viruses used in this study were CCR5-tropic and were selected from Monogram Biosciences' Specimen Library. The panel included four of each subtypes A, B, C, D, F, and G viruses and three subtype J virus (Table 17). Of the 31 viruses examined, 17 were wildtype (WT), 10 were resistant to protease (PR) and/or reverse transcriptase (RT) inhibitors and 4 were enfuvirtide-resistant site-directed mutants (SDMs). The enfuvirtide-resistant viruses included envelopes with amino acid substitutions at positions 36-38 (GIV motif) and 43 within heptad repeat 1 (HR-1) and were introduced by site-directed mutagenesis into gp41 transmembrane (TM) sequence of the JRCSF envelope, as shown in Table 16.
# DUAL (92HT594) is an envelope expression vector derived from a drug-naive reference virus that can efficiently infect cells expressing both the CD4 receptor and the CCR5 or CXCR4 co-receptor molecules on the cell surface. The DUAL envelope control was used to determine the fold changes in drug susceptibility of samples evaluated on U87-CD4/CCR5 cells. The DUAL control was also tested in each assay batch to evaluate and monitor assay performance over time.
# JRCSF is an envelope expression vector derived from a drug-naive reference virus that can efficiently infect cells expressing both the CD4 receptor and the CCR5 co-receptor molecules on the cell surface.
# Susceptibility data were analyzed by plotting percent inhibition of luciferase activity vs. log10 drug concentration.
# CCR5 = CCR5 (Homo sapiens, UniProt P51681); settings: cited from earlier work
# [3] = JRFL, labelled 1st inhibitor with 2nd inhibitor PRO 140 (equimolar; 1:10 PRO 140 to nevirapine or zidovudine)
# Sequence of CCR5 (P51681 whole entry): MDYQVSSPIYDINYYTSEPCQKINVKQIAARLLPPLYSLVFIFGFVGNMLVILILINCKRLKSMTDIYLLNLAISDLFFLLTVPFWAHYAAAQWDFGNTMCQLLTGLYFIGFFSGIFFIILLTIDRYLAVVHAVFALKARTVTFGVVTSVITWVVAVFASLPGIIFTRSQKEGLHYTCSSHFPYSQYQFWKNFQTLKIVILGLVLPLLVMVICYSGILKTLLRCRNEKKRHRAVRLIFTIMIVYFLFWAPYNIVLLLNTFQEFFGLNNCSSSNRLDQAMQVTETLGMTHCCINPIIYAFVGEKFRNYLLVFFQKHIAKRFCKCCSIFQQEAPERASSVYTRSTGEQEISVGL
molecule,measurement,setting,value
"PRO 140: humanized IgG4,κ anti-CCR5 mAb being developed for HIV-1 therapy (antibody, chains of the INN, looked up, V domains shown) VH: EVQLVESGGGLVKPGGSLRLSCAASGYTFSNYWIGWVRQAPGKGLEWIGDIYPGGNYIRNNEKFKDKTTLSADTSKNTAYLQMNSLKTEDTAVYYCGSSFGSNYVFAWFTYWGQGTLVTVSS VL: DIVMTQSPLSLPVTPGEPASISCRSSQRLLSSYGHTYLHWYLQKPGQSPQLLIYEVSNRFSGVPDRFSGSGSGTDFTLKISRVEAEDVGVYYCSQSTHVPLTFGQGTKVEIK",overall number of CCR5 lymphocytes as measured by CTC5 binding,"CCR5 lymphocytes; in vivo, 2 mg/kg",no decrease
same,time CCR5 lymphocytes effectively coated without cellular depletion,CCR5 lymphocytes; single 2 mg/kg dose,two weeks
same,time cells remain partially coated,CCR5 lymphocytes; single 2 mg/kg dose,> 4 weeks
same,time cells remain partially coated,CCR5 lymphocytes; single 5 mg/kg dose,> 60 days
same,control of viral replication (plasma viral loads),HIV-1JR-CSF,prolonged control of viral replication
same,IC50,"[1]; HIV-1 envelope JRFL, 1st inhibitor alone, read-out: IC50",2.2 nM
same,IC90,"[1]; HIV-1 envelope JRFL, 1st inhibitor alone, read-out: IC90",28 nM
same,CI50,[1]; [3],1.2 ± 0.32
same,CI90,[1]; [3],0.90 ± 0.15
same,median IC50,[2]; 27 viruses representing different genetic subtypes,0.44 µg/mL
same,range of FC values,"[2]; 31 test viruses, relative to HIV-1 92HT594",0.28-4.1
same,mean EC50,[2]; all 31 test viruses,0.50 ± 0.27 µg/mL
same,Mean FC,"[2]; all 31 test viruses, relative to reference virus HIV-1 92HT594",1.5±0.8
same,FC,[2]; envelopes from PR/RT-resistant viruses,1.4±1.0
same,mean IC50,[2]; four enfuvirtide-resistant SDMs,0.82 µg/mL
same,"IC50, Average",[2]; panel of 31 viruses,0.5096 µg/mL
same,"IC50, Max",[2]; panel of 31 viruses,1.4329 µg/mL
same,"IC50, Median",[2]; panel of 31 viruses,0.4418 µg/mL
same,"IC50, Min",[2]; panel of 31 viruses,0.0955 µg/mL
same,Mean FC,[2]; subtype A,1.0±0.4
same,Mean FC,[2]; subtype B,1.5±0.2
same,Mean FC,[2]; subtype C,0.94±0.5
same,Mean FC,[2]; subtype D,1.4±0.6
same,Mean FC,[2]; subtype F,1.5±0.7
same,Mean FC,[2]; subtype G,1.8±1.6
same,Mean FC,[2]; subtype J,1.2±0.4
same,Block Natural Activity of CCR5,CCR5; Table 2 summary,No
same,Development of Resistance In Vitro,CCR5; Table 2 summary,None at 40 weeks
same,Viral Cross-Resistance,CCR5; Table 2 summary,Limited
same,tolerability,CCR5,No Toxicity
